The results in this text go back to patent publication CN111620945A (JIANGSU DISEASE CONTROL AND PREVENTION CENTER JIANGSU …, dated 2020).

The term Kd denotes the free concentration of one partner at which half of the binding sites on the other are occupied at equilibrium, for simple one-to-one binding. Read a low Kd as tighter binding.

Test [1] has as its target 重组SARS-CoV-2刺突蛋白胞外区 (extra cellular domain of spike protein, S-ECD) (SARS-CoV-2, UniProt P0DTC2 14-1213). The test can be described thus: SPR, Biacore 8K, S-ECD immobilised on a CM5 chip, antibody 125-7.8 nM. Background: In SPR one partner is held on a chip, and binding of the other changes the refractive index at the surface.
For test [2], the target named is SARS-CoV-2 Spike蛋白(刺突蛋白) of the isolate BetaCoV/JS03/human/2020, on live virus (SARS-CoV-2, UniProt P0DTC2 14-1273). Description: cell-based or functional assay.
In test [3] the target is 重组SARS-CoV-2刺突蛋白胞外区 (extra cellular domain of spike protein, S-ECD) (SARS-CoV-2, UniProt P0DTC2 14-1213). The test can be described thus: SPR, Biacore 8K, S-ECD immobilised on a CM5 chip, antibody 125-7.8 nM. The source holds these as a separate data set.
The target in test [4] is SARS-CoV-2 Spike蛋白(刺突蛋白) of the isolate BetaCoV/JS03/human/2020, on live virus (SARS-CoV-2, UniProt P0DTC2 14-1273). The test can be described thus: cell-based or functional assay. The source holds these as a separate data set.

B1: FC08 (antibody, V domains shown)
VH: VQLLQQSGAEVKKPGSSVKVSCKASGGTFSSYAISWVRQAPGQGLEWMGGIIPILGIANYAQKFQGRVTITADKSTSTAYMELSSLRSEDTAVYYCVRERGYSGYGAAYYFDYWGQGTLVTVSS
VL: QSVLTQPPSVSGAPGQRVTISCTGSSSNIGAGYDVHWYQQLPGTAPKLLIYGNSNRPSGVPDRFSGSKSGTSASLAITGLQAEDEADYYCQSYDSSLSGSVFGGGTKLTVL
notes: also called FC08抗体
B1: in test [1], the equilibrium dissociation constant (Kd) was determined as 0.8 nM. The “IC50(ng/ml), 体外中和实验 (live virus, Vero E6, CPE)” value (“IC50(ng/ml), 体外中和实验” below) in test [2] amounted to 325 ng/mL.

B2: FC11 (antibody, V domains shown)
VH: EVQLLESGGGVVQPGRSLRLSCAASGFTFSYYGMHWVRQAPGTGLEWVAVISYDGSNEYYADSVKGRFTISRDNSKNTLYLQMNSLRAEDTAVYYCAKAMFLGDSSGLTGLDMDVWGQGTTVTVSS
VL: DIELTQSPGTLSLSPGERATLSCRASQSVSSYLAWYQQKPGQAPRLLIYDASNRATGIPARFSGSGSGTDFTLTISSLEPEDFALYYCQQRGNWPPTFGGGTKLEIK
In test [3], B2 had an equilibrium dissociation constant (Kd) of 0.5 nM. Also, in test [4], the “IC50(ng/ml), 体外中和实验” value is 818 ng/mL.

B3: FC05 (antibody, V domains shown)
VH: VQLLEQSGAEVKKPGASVRVSCKVSGYTLPEVAMHWVRQAPGKGLEWMGGFDPEDGETIYAQKFQGRVTMTEDTSTDTAYMELSSLRSEDTAVYYCATTTPFSSSFWFDPWGQGTLVTVSS
VL: QSVLTQAPSVSGAPGQKVTISCSGSSSNIGNNYVSWYQQLPGTAPKLLIYDNNKRPSGIPDRFSGSKSGTSATLGITGLQTGDEADYYCGTWDSSLSAVVFGGGTKLTVL
For the molecule B3, the “IC50(ng/ml), 体外中和实验” value in test [4] turned out to be 142 ng/mL.
